In patent US20030223964A1:

Target: FITC-labeled CD4 (UniProt P01730)
Test: size exclusion HPLC (Biosil 250) after incubation with FITC-labeled CD4; free CD4-FITC elutes at 2.67 minutes

Substance	retention time of the complex on size exclusion HPLC
US4 gp120, purified from CHO cell supernatant	2.17 min
oligomeric gp140 US4 (o-gp140 US4), purified from CHO cell supernatant	1.9 min
